Assay results from the DeepSol protein solubility set.

Test: soluble on expression in E. coli; label from the status in PepcDB or PDB records

| Sequence | soluble on expression in E. coli |
| --- | --- |
| MSLSKLGIIGLGKVGTQVLTDVQQLNLFSEIILIDDRADVASGEALDHIHSQGLINTAHIKIRSGVYQDLTDADFIVIAASEATDKNNGDRTLLAQGNHDIIKGIMSQIAEVTQEAVVILISNPVDSMVYFANQIDYPAHKIIGTGTALETSRFKTIIADHYQIDPNNVEAFVIGEHGQHAIPVWSKVHIHGMELSEFEALSDRPAIDKSHISSIINEVSMDVFYQKGWTNAAISKVTSFLIQSIALDQRTITPLTSLSSEYGLEDGAFSLPTLIDKKGIVQRFAITLDKEEERELKEAYEYIRQTIHTAQEGHHHHHH | soluble |
| MAHHHHHHMKLLKVSPEKNIEFPLVHFQAVTQVVKLENISDRKVAFKIKTTAPNNYLVRPSFGLINVKETIDIQIILQPLSDKDNISNDKFQVQCLNVDDDTTVDKQFWVTVNKNEIQDHKLVVVLNDESFSKGPHSYLPPNNNPLTEINNKGHNLNYGENNLNADDANMAEGTNQRRPHRVCAAV | soluble |
| MITLIFPGFNNVHVSGMDIEEKIRKIEEEIQKTPYNKATAHHIGKLKAKISRLKEEALQRKTSSGKGRGFHIKKSGDSTVVLIGFPSVGKSTLLNELTSAESKVGDYQFTTLEIVPGVMEYRGAQIQIFDIPGIITGASRGRGRGREILSVARSADLIVIVLDVFNTDHMDIILRELRDVGIRPNETPPDVIVKRRKLGGVKLSATVELTHLDEKIIRSVLNEYGIHNADVLIRDDITVDQFIDVMEANRAYIPAITVINKIDLVDESYLEGLREKFPEALFISADRDINIDELREEIFNRLGLIRIYLKPQGKKADYDEPLIIREGSTVGDVCQKLHRDFVRKFRHARVWGSSVKFDGQKVGLEHVLNDEDVLRIIIKK | not soluble |
| MSLRERPVIDELSKVKKLKLTGQTEALFESWRSSWDEIETRLFPDLEEVLLEAEMNTDRYKFRSATHAENDIEQMLVVIEKQMDQILGGLKELLISEEKNAKESRATKEKFAELRREVLTRGFKLGETLPYIETKLSELSESLNSYDSLTDQGDHLEAREIVIVVQKEMQVIEAQMERIPSLLHETDTILPEEMTKLRAGYEEMVRKGYYLAQMELDKEISRMKNQIDKMKKNVINLDLDEAEQGVEELHNEIDLFYDTLEHEAEARHFVKENHSPTSDKLQRQNAVSDALAEQITEVKQTYHVAEDDLAVYLKTSAKLSEAKENFEQLTALIASGEIAYSAAQDTLKEIDAALITISAEQDKFAEELRSLRKDELEARDDAERMRRAIITLDRKMERERLPGLPEEYLSLREHMGESINALEKRLEEKPLNMKAVSQDWRIAEEDLTHLTEKAEEMMENVRLVEHVIQYANRYRLRNKELADELVQAENHFYNDYQYKKALEIAVTALEKVETGAFKKVEKAYESKVSVDEGHHHHHH | not soluble |
| VSELRLMAVHAHPDDESSKGAATLARYADEGHRVLVVTLTGGERGEILNPAMDLPDVHGRIAEIRRDEMTKAAEILGVEHTWLGFVDSGLPKGDLPPPLPDDCFARVPLEVSTEALVRVVREFRPHVMTTYDENGGYPHPDHIRCHQVSVAAYEAAGDFCRFPDAGEPWTVSKLYYVHGFLRERMQMLQDEFARHGQRGPFEQWLAYWDPDHDFLTSRVTTRVECSKYFSQRDDALRAHATQIDPNAEFFAAPLAWQERLWPTEEFELARSRIPARPPETELFAGIEP | soluble |
| MIHITSQACFLWHTTINKICNRPMFNPLTIRFWGVRGSIPCPGSHTVRYGGNTPCVEIQANGQRIILDGGTGLRVLGEHLMGQQPVTAHLFFTHTHWDHIQGFPFFQPAFVPGNQFHIYAVPGKNGQGIERRLNDQMLHPNFPVPLQIMGGDLRFYDLEVGERVHLGDGVVVSNEALNHPGGGVGYRVSWQGIHVAYITDTEHLPDRLHPGAFALADHADVMIYDATYTDEEYYHPQQSKVGWGHSTWQEAVKLAQAAQVKQLILFHHDPSHDDDCLDRIGELARAQFPQTLLAREGLIISVYPNVIHFPATPQASLEHHHHHH | not soluble |
| MDRFDAMQAFARVVDTGSFTKAAETLHMSRTSVTQLVQQLEARLRVRLLNRTTRKLNLTADGAAYYERVVRLLAELDDAETSLSSAALAPRGRLRIDVPSPLARLLLIPALPEFHARYPEIQIDLGVSDRLVDLIDENVDCVIRGGELRDQSLMARRVGDLQLGVYAAPAYLQRAGVPSHPRELEDSHQRIVGFLWARTGKALPYAMRRGEECLRVAGRHVLAVDDGNAYLAAGLAGLGILWLPHYMAREPLARGELLPLFEDWSLEPMPLYLAFPPNRHVSGKLRVFIEWVAELIARHAPPLHPPL | not soluble |
| SGSRDHLFKVLVVGDAAVGKTSLVQRYSQDSFSKHYKSTVGVDFALKVLQWSDYEIVRLQLWDIAGQERFTSMTRLYYRDASACVIMFDVTNATTFSNSQRWKQDLDSKLTLPNGEPVPCLLLANKCDLSPWAVSRDQIDRFSKENGFTGWTETSVKENKNINEAMRVLIEKMMRNSTEDIMSLSTQGDYINLQTKSSSWSCC | soluble |
| KLDKIDNKNRRIRKKLFLGEFAILGFEISCETDINDFDRYDAFVDDFIDYIDTLGLCFGGGGLELFEGFLCSTERYGSATEEQKAQVVAWLEARPEVKSAKAGDLLDANY | not soluble |
| MGSDKIHHHHHHMLKPDRLRALAEALTRQNVMRLRDAAGLLGVSEMTVRRDIAGSPERFTYLGGYIVSATDVPNNAGYSLEEEKDHFAQAKAEASAVAAGLIGNNETLFIDCGTTLTTLARLIPLERHVTVVCYSLNVAEILRRKPNVRMILLGGVYVPSSDSFAGEESLEMLRRMGINKAFISAGGVDTARGVTCWNFHEVALKQAAMASAVERHLVVDQSKFGVVKAVRFSQVDDFDSIITEKGQQLRKRR | not soluble |
| MAHHHHHHMYVAIYNIGKKKNIGSIVRSCVAFRVSKIFVVSRKKNQVNFFGHMGTCEYITIEYFSSMKELKTHLRDNGILLYACEITSSAVPVTRRPFENKDTAFLFGNEGTGINDETLSYCDKVVYIPQYGNGTCSLNVSVSCAIILHHFAVWADYPEVGISGKKFVLNKCATKLERYLNPSDDLLRQISEKRAQRAATKLASPDWAAPHFADPSPDLFPG | not soluble |
| MGSDKIHHHHHHMNSIQLKAVSFSREQPLFEKTNLAIPQGTFSLLIGDSGSGKSTLLRLIAGFAPLDYQGEILIEGMERRQLSTREKAQKIGMLFQNPSQQFTMKTLERELIFALENLGIPPEEMNRKIQTALQLVQTQTLFTRELATLSGGEKQKAALTVLLAMNPDILLLDEPFASIDPTSRKQFIQILARLHQAGKTILVCDHDFSDYADVVDQVVTLKNGQFEKQPLTFIKTKPQTFQLTTSVVKQPMLQLKNFRLSQGKRVLLEEKEALLFKGITTLTGPNGAGKSTLLKAIVQRQKYQGKMFLAGRRLRASKKLYQHMTLAVQQANRQFVTLTLREELLFGQNMTAEKRRKQEEALTFLGLKEKLEHSVFQLSEGQKKMVQLISLLSLDLDCLLLDEPFAGLDERACNYFVEWIKEKSAQQDFLIVTHRLEPLSGVSNYRIELLQQQLIIWQEGTTCK | not soluble |
| MGSDKIHHHHHHMKIAIEAQRIFRKEKHGMDYVALETIRELQKIDQQNEYFILVSPGDDVCLQESANMHIVTVNWPSYPLWEQIGLPLALKKIKPDLLHCTSNTAPVHGNIPLVLTLHDIIFLEKKQGKNQSMYQRLGRFYRKIIVPQILTKCKRIITVSHFECNRISHFLHIDKQLLVAVYNGYSQHFIPIRNAQAITARYIKNHPYLFFLGNTDPKKNTARVLQAYGIYLKKSSQPLPLLIADLKEEIIDEYLNREGLQEIKKMLYHPGYIPNTELPAVYSGASVFIYTSLRESFGIPILEAMACGTPVITSTTSAMPEIAGPEGILVNPFEPEEIASALLHLEENAEFYQSQTAYGLERVRRFSWENTAREILNIYKEILA | not soluble |
| MEHDERTHVPVELRAAGVVLLNERGDILLVQEKGIPGHPEKAGLWHIPSGAVEDGENPQDAAVREACEETGLRVRPVKFLGAYLGRFPDGVLILRHVWLAEPEPGQTLAPAFTDEIAEASFVSREDFAQLYAAGQIRMYQTKLFYADALREKGFPALPV | soluble |
| GAKLNRKLRQDSTDRYKTKLYLWRNLGGLIPEDMAISVTESITADWKQYNDMMSKVRNETLDILKTNKVATEDYIGYIAFAEELAHQVWKNKNSSPDPNTANEASKTDLESKYSDVYGLDVTVLDAIYNAVIPIIMGGGS | soluble |
| SDQEEGLKALDNIVTQFNAYEDFLDSQITTVDLYYLEDETLARQLVELGYRGTGERVKREDFEARKAAIEIARLAERAQQKTLTSAGKDLQDNFLTALAMREEDNRSGKLSSVIFIRDRNSHGQEISGYIDYAHRLKTEDFEVYFTGKKRLLPRPTDISFYNWDADIAVSNSSPNYQVIADNPEGLLFRYKRDRKILNVDPKAQPGDNSTRITILTELYIQAVIFDHISRRKT | soluble |
| MGSDKIHHHHHHMENYTHWFYLESYTFLFYSKNQYVIYNTLNSTYIDCSLYGKTINTVLSILHNTNKTYCVGIYEYQLRDSQFTEFIKKIRNTFSGDIIKNIRGIPPFISKPILRILHHPNNPKTKEYNLLGENALFHLHEVTFYLENQGFDLNPMYKDCYKQFLYPTYTEKQKLSHAKYLEIIEQLSICQIDKINIIPATIEKKELFSYLLSLSRQYSIKTQIILPYKKYNKEDLKQLLTNPQFSIMIMVHLPVDYEELNSYINLFNEYNITWSLIASNKNDVIFLSKNNLGKFTNVDYIPWYTGDNMDFFKEYIYNDFKDIIEQKNTKQHIFRKQILNDNLFGKLTIFPTGEVYSNVNFPTIGNIQDQKLSEIVYSEIENYFKPWFFTRDYVSCKNCVNKYLCPSISNYEIVANEYNMCYLNQ | not soluble |
| MGSDKIHHHHHHMEPKYTSFDKSAKTCIRQQVITEDLSWAHYQNAGERLYYQNDTQHTLSMYLDGGYETHRTDIKADYGAPSKFCLMPQGCQSHWQLGQPQQFMHLYFSDEHLKKLAVRVFDKDPRQVRLPELTFVDNPRLEALFRHQVAGLNWQTSDNHLMMEQVTDTVLVTLLQSSGFNLSVGPIKGGLAPKVAKAIKEFIYCHSHRQIYLSELAEIAQLSEYHFCRMFKCQFAMTPQEYLLQVRIEKVKQSLSHSTQSLTDIALNNGFANQSHMGRYFKKLSGMSPGEYQKHHQGR | not soluble |
